Experimental data: patent US20220411492A1 (QILU PHARMACEUTICAL, published 2022)

Assays:
[1] = target: T1, human Claudin 18.2 (hCLDN18.2) (human, UniProt P56856-2 1-261); assay: FACS, PDX-hCLDN18.2 gastric cancer tumor tissue-derived cells
T1 construct: whole, on cells; also called CLDN18A2; claudin 18 splice variant 2
From the text: (§1) FACS was used to detect the binding of anti-CLDN18.2 chimeric antibodies to HEK293 cells stably transfected expressing hCLDN18.2 (HEK293-hCLDN18.2) and gastric cancer tumor tissue-derived cells naturally expressing hCLDN18.2 (PDX-hCLDN18.2).

[2] = target: murine CLDN18.2 (mCLDN18.2) (murine) (UniProt P56857); assay: FACS, HEK293-mCLDN18.2 cells
[3] = target: T1, human Claudin 18.2 (hCLDN18.2); assay: cell-based or functional assay
[4] = target: T1, human Claudin 18.2 (hCLDN18.2); assay: cell-based or functional assay; remark: listed apart in the source
[5] = target: T1, human Claudin 18.2 (hCLDN18.2); assay: FACS, HEK293-hCLDN18.2 cells
From the text: as §1

Binder	EC50 [1] [nM]	Mean maximum fluorescence intensity (Top MFI) [1] [MFI]	EC50 [2] [nM]	Mean maximum fluorescence intensity (Top MFI) [2] [MFI]	CDC EC50 [3] [µg/mL]	CDC Maximum lysis (%) [3] [%]	ADCC EC50 [4] [µg/mL]	ADCC Maximum lysis (%) [4] [%]	EC50 [5] [nM]	Mean maximum fluorescence intensity (Top MFI) [5] [MFI]
ch-48H1 (antibody, V domains shown, also called chimeric antibody of clone 48H1) VH: QVQLQQPGAELVKPGTSVKLSCKASGYIFTNYWTHWMKQRPGQGLEWIGMIHPNSGSSNYNEKFKSKATLTVDRSSSTVYMQLRRLTSEDSAVYYCTRIHYGNSMDYWGQGTSVTVSS VL: DIVMTQSPSSLTVTAGEKVTMSCKSSQSLFNSGNQKNYLTWYQQKPGQPPKLLIYWASTWESGVPDRFTGSGSGTDFTLTISSVQAEDLAVYYCQNAYSYPFTFGSGTKLEIK	5.59	13600	1.76	14800	0.17	94.3	0.011	44.7	2.92	9480
ch-43F5 (antibody, V domains shown, also called chimeric antibody of clone 43F5) VH: QVQLQQPGAELVKPGTSVKLSCKASGYTFTSYWTHWVKQRPGQGLEWIGMIHPNSGSSNYNEKFKSKATLTVDKSSSTAYMQLRRLTSEDSAVYYCTRIHYGNAMDYWGQGTSVTVSS VL: DIVMTQSPSSLTVTAGEKVTMTCKSSQSLLNSGNQKNYLTWYQQKPGQPPKLLIYWASTRESGVPDRFTGSGSGTDFTLTISSVQAEDLAIYYCQNDYSFPFTFGSGTKLEIK	5.35	7620	1.13	6090	0.206	89.8	0.064	48.5	1.51	5590
ch-40G7 (antibody, V domains shown, also called chimeric antibody of clone 40G7) VH: QVQLQQPGTELVKPGASVKLSCKASGYTFTNYWMHWVKQRPGHGLEWIGMIHPNSYSTNYNEKFRSKATLTVDKSSSTAYMQLSSLTSEDSAVYYCTRIYYGNAMDYWGQGTSVTVSS VL: DIVMTQSPSSLTVTAGERVTMSCKSSQSLFNSGNQKNYLTWYHQKPGQPPKLLIYWAFTRESGVPDRFTGSGSGTDFTLTIRSVQAEDLAVYYCQNDYSYPFTFGSGTKLEIK	7.69	10100	1.11	10000	0.38	89.1	0.018	32.7	2.31	7470
ch-76D11 (antibody, V domains shown, also called chimeric antibody of clone 76D11) VH: QVQLQQSGAELMKPGASVKLSCKASGYTFTGYWIEWIKQRPGHGLEWIGEILPGSGSIKYNEKFKDKATFTADTSSNTAYMQLSSLTTEDSAIYYCARKGLRGNSFDYWGQGTTLTVSS VL: DIVMTQSPSSLTVTAGEKVTMSCKSSQSLLNSGNQKNYLTWYQQKPGQPPKRLIYWASTRESGVPDRFTGSGSGTDFTLTISSVQAEDLAVYYCQNDYYYPFTFGSGTKLEIK	12.3	16800	0.702	6340	0.108	95.4	0.021	45.6	2.46	8720
ch-32G8 (antibody, V domains shown, also called chimeric antibody of clone 32G8) VH: EVHLQQSGPVLVKPGASVKMSCKASGYTFTDYHMNWVKQSHGKSLEWIGVINPYNGGIRYNQKFKGKATLTVDKSSSTAYMELNSLTSEDSAVYYCATIYYGNSFAYWGQGTLVTVSA VL: DIVMTQSPSSLTVTAGEKVTMSCKSSQSLLNSGNQKNYLTWYQQKPGQPPKLLIYWASTRESGVPDRFTGSGSGTDFTLTISSVQAEDLAVYYCQNNYIYPFTFGGGTKLEIR	5.39	14800	0.84	6870	0.108	93.8	0.019	46.8	2.66	8640
ch-37G8 (antibody, V domains shown, also called chimeric antibody of clone 37G8) VH: EVQLQQSGPVLVKPGASVKMSCKASGYTFSDYHMNWVKQSHGKSLEWVGLINPYNGGIRFNQKFKGKATLTVDKSSSTAYMELNSLTSEDSAVYYCATIYYGNSFAYWGQGTLVTVSA VL: DIVMTQSPSSLTVTAGEKVTLTCKSGQSLLNSGNQKNYLTWYQQKPGQPPKLLIYWASTRESGVPDRFTGSGSGTDFTLTISGVQAEDLAVYYCQNDYFYPYTFGGGTKLEIK	7	14400	1.71	8930	0.16	92.9	0.022	31.7	5.05	10400
